Numbering of substitutions follows the chain as printed.
How the values were obtained:
mouse CRHR2 = experiment: CRH-induced luciferase reporter blocking assay, CHO-CRE-mCRHR2 cells; format: cell-based; settings: CHO-CRE-mCRHR2 cells, 5 nM CRH
Outline: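 CHO-CRE cells stably expressing mouse CRHR2 were seeded overnight, then given serially diluted antibodies (8 points, 1:4) together with CRH at 5 nM final. After 4–6 h at 37 °C, CRE-driven luciferase was read by Bio-Glo luminescence.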

human CRHR2 = experiment: CRH-induced luciferase reporter blocking assay, CHO-CRE-hCRHR2 cells; format: cell-based; settings: CHO-CRE-hCRHR2 cells, 0.1 nM CRH
Outline: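 CHO-CRE reporter cells stably expressing mouse or human CRHR2 were treated with serially diluted antibodies (8 points, 1:4) plus CRH at final 5 nM (mCRHR2) or 0.1 nM (hCRHR2), 4-6 hours at 37° C. CRE-driven luciferase read by luminescence after 10 min with detection reagent.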

[1] = system: constitutively high plasma ACTH in Mrap1 KO mice; experiment: Mrap1 KO mice constitutively high ACTH model; format: in vivo, mouse; settings: for plasma ACTH concentrations in Mrap1 KO mice: single dose 20 mg/kg
Procedure: 8-10 week old wildtype female C57BL/6 mice were obtained from Charles River Laboratories. Mrap1 KO mice were obtained from Queen Mary University of London, UK. SSR125543A, a small molecule CRHR1 antagonist, was obtained from Axon Medchem (Cat #Axon 1799). Mouse Corticosterone (55-Corms-E01) and adrenocorticotropic hormone (ACTH) ELISA kits (21-ACTHU-E01) were obtained from ALPCO, USA. All procedures were carried out in accordance with the Guide for the Care and Use of Laboratory Animals of the National Institutes of Health. Protocols were approved by Charles River Laboratories Institutional Animal Care and Use Committee (IACUC).
To generate Mrap1 KO mice, Mrap1−/− male mice were bred with Mrap1+/− female mice. Corticosterone hormone replacement was performed by administering 50 μg/ml in drinking water to breeder cages when female mice were pregnant and their pregnancies palpable (approximately embryonic day 10). Drinking water was changed weekly, and treatment was stopped at weaning. Mice were uniquely identified with ear tags at the time of tail clipping to match future genotype with each mouse. DNA was extracted from tail tissue and used to genotype mice.
[…] On day 2 or 3, 14 and 28, 200 μl of blood was collected in EDTA tubes from the submandibular vein of each mouse. Plasma was separated using a refrigerated centrifuge (4° C. at 500×g for 10 min) and snap-frozen in dry ice for subsequent ACTH ELISA measurement.

biotinylated CRH = target: T1, biotinylated CRH (Homo sapiens, UniProt P06850); experiment: Affinity determination with Octet; format: binding
T1 construct: purchased GL Biochem 784751
T1 sequence (P06850 154-194): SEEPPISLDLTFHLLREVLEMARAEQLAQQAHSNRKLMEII
Outline: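 Biolayer interferometry: 30 nM biotinylated CRH loaded onto streptavidin sensors, 2-fold antibody dilutions as analyte in PBS kinetics buffer. Association 180 s, dissociation 800 s, glycine pH 1.5 regeneration; double-referenced data fitted for affinity.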

B1: PR302334-24: humanized variant of Series 9 mAb PR302334; VH SEQ ID NO: 275, VL SEQ ID NO: 328 (antibody, V domains shown)
VH: EVQLVESGGGLVKPGGSLRLSCAASGFTFSTYAMSWVRQAPGKGLEWVASIRSGGTTYYPDSVKGRFTISRDNAKNSLYLQMNSLRAEDTAVYYCTRGIDWGQGTTVTVSS
VL: DIVMTQSPDSLAVSLGERATINCKASQSVNNDVAWYQQKPGQPPRLLIYYASNRYTGVPDRFSGSGSGTDFTLTISSLQAEDLAVYFCQQDYSSWTFGGGTKVEIK
modifications: PR302334-16 VH, PR302334-24 VH, PR302334-25 VH; PR302334-10 VL, PR302334-24 VL, PR302334-26 VL, PR302334-4 VL
B1 was tested, and the IC50 (mouse CRHR2) was 2.03 nM, the IC50 (human CRHR2) was 2.01 nM and the “inhibition of ACTH versus SSR125543A” value ([1]; Mrap1 KO mice) was “more complete inhibition”. For the same molecule, the “efficacy versus SSR125543A, ACTH levels” value ([1]; Mrap1 KO mice, day 2 and day 14, figure legend, doses not given) was “superior efficacy”, the “efficacy in reducing plasma ACTH levels versus SSR125543A at 30 mg/kg” value ([1]; Mrap1 KO mice, mAb 5 mg/kg) was “more efficacious” and the “efficacy in reducing plasma ACTH levels versus SSR125543A at 30 mg/kg” value ([1]; Mrap1 KO mice, mAb 10 mg/kg) was “more efficacious”. The “efficacy in reducing plasma ACTH levels versus SSR125543A at 30 mg/kg” value ([1]; Mrap1 KO mice, mAb 20 mg/kg) was “more efficacious”, the “plasma ACTH concentrations in Mrap1 KO mice” value [1] was “significantly reduced” and the “kdis” value (biotinylated CRH) was under 1e-07 s⁻¹. The “kon” value (biotinylated CRH) was 606000 M⁻¹ s⁻¹.

B2: PR302334-26: humanized variant of Series 9 mAb PR302334; VH SEQ ID NO: 277, VL SEQ ID NO: 328 (antibody, V domains shown)
VH: B1 VH with K13Q, A74S
VL: B1 VL
modifications: PR302334-18 VH, PR302334-26 VH, PR302334-27 VH; PR302334-10 VL, PR302334-24 VL, PR302334-26 VL, PR302334-4 VL
B2 was tested, and the IC50 (mouse CRHR2) was 1.47 nM, the IC50 (human CRHR2) was 1.24 nM and the “plasma ACTH concentrations in Mrap1 KO mice” value [1] was “markedly reduced”. The “kdis” value (biotinylated CRH) was under 1e-07 s⁻¹ and the “kon” value (biotinylated CRH) was 329000 M⁻¹ s⁻¹.
